Laboratory results reported in the supplement of paper PMC7125110.
± gives the standard error. For some of these results: This sample holds only a part of the variants without activity.

B1: glmS ribozyme (parent)
chain: AUAAAAGCGCCAGAACUACAGAAAUGUAGUUGACGAGGAGGAGGUUUAUCGAAUUUUCGGCGGAUGCCUCCAAA

What was measured:
Settings in all cases: with glucosamine-6-phosphate
[1] = variants of: B1; assay: kcat; higher = faster cleavage; RNA array
Method in brief: (§1)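 Barcoded ribozyme variants, transcribed in situ by E. coli RNA polymerase on sequenced MiSeq chips, were followed via a hybridised Cy3 probe at 37 °C. Glucosamine-6-phosphate ranged from 40 μM to 10 mM in HEPES/KCl/Mg(OAc)2 buffer. kobs came from decay fits to per-tile medians, and kcat and KM from weighted Michaelis–Menten fits.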

[2] = variants of: B1; assay: KM; higher = weaker cofactor use; RNA array
Method in brief: as §1

[3] = variants of: B1; assay: self-cleavage kobs at 40 uM GlcN6P; higher = faster cleavage; RNA array
Method in brief: as §1

[4] = variants of: B1; assay: self-cleavage kobs at 160 uM GlcN6P; higher = faster cleavage; RNA array
Method in brief: as §1

[5] = variants of: B1; assay: self-cleavage kobs at 640 uM GlcN6P; higher = faster cleavage; RNA array
Method in brief: as §1

[6] = variants of: B1; assay: self-cleavage kobs at 2500 uM GlcN6P; higher = faster cleavage; RNA array
Method in brief: as §1

[7] = variants of: B1; assay: self-cleavage kobs at 10000 uM GlcN6P; higher = faster cleavage; RNA array
Method in brief: as §1

Variant | kcat [1] [s⁻¹] | KM [2] [µM] | self-cleavage kobs at 40 uM GlcN6P [3] [s⁻¹] | self-cleavage kobs at 160 uM GlcN6P [4] [s⁻¹] | self-cleavage kobs at 640 uM GlcN6P [5] [s⁻¹] | self-cleavage kobs at 2500 uM GlcN6P [6] [s⁻¹] | self-cleavage kobs at 10000 uM GlcN6P [7] [s⁻¹]
A12U G37A | 0.0147 ± 0.0035 | 4700 ± 1500 | 0.000169 ± 2.3e-05 | 0.000398 ± 7.4e-05 | 0.00168 ± 0.00025 | 0.00456 ± 0.001 | 0.0103 ± 0.0011
A48G C61U | 3e-05 ± 9.3e-06 |  | < 1e-05 |  |  |  | 
C16A C71A | 0.000128 ± 2e-05 |  |  | 3.26e-05 ± 1.3e-05 | 7.22e-05 ± 1.1e-05 | 0.000187 ± 3.1e-05 | 0.000114 ± 1.2e-05
C68U U69G C70U | 1.34e-05 ± 6e-06 |  |  |  |  |  | 
A12U U31C | 0.011 ± 0.0038 | 2070 ± 880 | 0.000254 ± 4.3e-05 | 0.000727 ± 0.00017 | 0.00178 ± 0.00062 |  | 0.0101 ± 0.0026
C10A U30A C68U | 7.99e-05 ± 2.3e-05 |  |  | 8.08e-05 ± 2.5e-05 |  |  | 
U30A G37A | 0.000308 ± 0.00011 |  |  | 3.75e-05 ± 1.2e-05 | 6.25e-05 ± 1.2e-05 | 0.000141 ± 2.9e-05 | 0.000302 ± 7.7e-05
A6G C71U | 6.03e-05 ± 2.1e-06 | 1890 ± 260 |  |  |  | 3.33e-05 ± 8e-06 | 5.1e-05 ± 6.3e-06
A6U U49A | < 1e-05 |  |  | < 1e-05 |  |  | < 1e-05
A12C C68U | 0.000589 ± 4.7e-05 | 1370 ± 220 |  | 6.12e-05 ± 8.3e-06 | 0.00018 ± 1.7e-05 | 0.000436 ± 3.7e-05 | 0.000494 ± 3.6e-05
A14G U30C | 0.00152 ± 0.00022 | 1880 ± 500 | 3.48e-05 ± 8e-06 | 9.58e-05 ± 1.9e-05 | 0.000552 ± 0.00011 | 0.000958 ± 0.00012 | 0.00122 ± 0.00013
A12G A33U | 1.86e-05 ± 6.4e-06 |  | < 1e-05 |  |  |  | < 1e-05
G51A C68G | 3.03e-05 ± 1.4e-05 |  |  |  |  |  | 
U46C A52U | 0.0006 ± 0.00022 |  | < 1e-05 |  | 3.24e-05 ± 1.6e-05 | 6.32e-05 ± 1.1e-05 | 0.000199 ± 2.3e-05
U56A G66A | 0.00503 ± 0.0023 |  | 0.000167 ± 1.7e-05 | 0.00039 ± 6.4e-05 | 0.00117 ± 0.00021 | 0.00253 ± 0.00043 | 0.00718 ± 0.0011
C16U A42G | 0.0195 ± 0.0085 |  | 0.000669 ± 0.0001 | 0.00221 ± 0.00057 | 0.00699 ± 0.0019 | 0.00906 ± 0.0027 | 0.0355 ± 0.0076

Variant | kcat [1] [s⁻¹] | KM [2] [µM] | self-cleavage kobs at 40 uM GlcN6P [3] [s⁻¹] | self-cleavage kobs at 160 uM GlcN6P [4] [s⁻¹] | self-cleavage kobs at 640 uM GlcN6P [5] [s⁻¹] | self-cleavage kobs at 2500 uM GlcN6P [6] [s⁻¹] | self-cleavage kobs at 10000 uM GlcN6P [7] [s⁻¹]
C16A G66U | 0.000122 ± 3.2e-05 | 8450 ± 4000 |  |  |  | 2.61e-05 ± 1.2e-05 | 6.63e-05 ± 1.5e-05
G29U U49A | < 1e-05 |  | < 1e-05 | < 1e-05 |  |  | < 1e-05
A14C G41U | 0.000291 ± 6.9e-05 |  |  |  | 0.000102 ± 1.6e-05 | 0.000161 ± 2.2e-05 | 0.000272 ± 4.2e-05
A14G A42G A53G | 0.0447 ± 0.015 | 781 ± 340 | 0.00216 ± 0.00072 |  |  |  | 0.0405 ± 0.019
U45C U56C | 0.000492 ± 4.3e-05 | 5500 ± 810 |  |  | 5.37e-05 ± 1.2e-05 | 0.000149 ± 3e-05 | 0.000319 ± 4.5e-05
A12G U47C | 0.000813 ± 9.1e-05 | 3820 ± 720 |  | 3.52e-05 ± 1.3e-05 | 0.000111 ± 1.5e-05 | 0.000412 ± 8.3e-05 | 0.000577 ± 6.1e-05
U31G G41C | 0.000172 ± 3.9e-05 |  |  |  |  | 0.000167 ± 3.6e-05 | 0.000139 ± 2.2e-05
C58G C68U | 4.76e-05 ± 7e-06 |  |  | 7.05e-05 ± 1.9e-05 | 5.45e-05 ± 1.2e-05 | 4.14e-05 ± 1.3e-05 | 4.34e-05 ± 7.8e-06
U47C A53U | 0.00157 ± 0.00025 | 1150 ± 280 | 4.38e-05 ± 9.7e-06 | 0.000209 ± 4.6e-05 | 0.000671 ± 0.00012 | 0.0012 ± 0.00023 | 0.00124 ± 0.00025
A14C A15G | 0.00631 ± 0.0025 | 6250 ± 2900 | 5.61e-05 ± 7.9e-06 | 0.000127 ± 1.8e-05 | 0.000597 ± 6.6e-05 | 0.00192 ± 0.00022 | 0.00369 ± 0.00064
U31A G32C | 0.000234 ± 1.1e-05 | 1950 ± 290 |  |  | 5.55e-05 ± 1.8e-05 | 0.000141 ± 3e-05 | 0.000194 ± 2.1e-05
A15C C61U | < 1e-05 |  | < 1e-05 | < 1e-05 | < 1e-05 |  | 
G13U G29A | 0.000411 ± 4.9e-05 | 6480 ± 1300 |  |  | 3.19e-05 ± 1.3e-05 | 0.000121 ± 2.2e-05 | 0.000246 ± 4.2e-05
U31C U55G | 0.0059 ± 0.0019 | 2750 ± 1200 | 0.000126 ± 1.5e-05 | 0.000291 ± 3.8e-05 | 0.00104 ± 0.00018 | 0.0022 ± 0.00033 | 0.00547 ± 0.00061
C10G G51U C68U C70U | < 1e-05 |  |  |  |  |  | 
A12G G32U | 0.00313 ± 0.00012 |  |  | 4.1e-05 ± 8.1e-06 | 0.000164 ± 1.8e-05 | 0.00055 ± 5.4e-05 | 0.00144 ± 0.00014
